Experimental data from patent US8470576B2, “Group of novel enantioselective microbial nitrile hydratases with broad substrate specificity” (B.R.A.I.N. AG, priority 2006, dated 2013).
Positions count from the first letter of the chain named.

B1: NHase Seq ID No. 2 and 4: nitrile hydratase of Raoultella terrigena strain 77.1, α-subunit SEQ ID NO 2, β-subunit SEQ ID NO 4 (protein)
alpha: MSHKHDHDHTEPPVDIELRVRALESLLQEKGLIDPAALDELIDTYEHKVGPRNGAQVVARAWSDPEYKRRLMENATAAISELGFSGIQGEDMLVVENTPDVHNVTVCTLCSCYPWPVLGLPPVWYKSAPYRSRIVIDPRGVLAEFGLHIPESKEIRVWDSSAELRYLVLPERPAGTDGWSEAQLSELISRDSMIGTGVVTAP
beta: MNGIHDLGGMHGFGPIPTEENEPYFHHEWERRVFPMFASLFVGVHFNVDEFRHSIECMPPADYLQSSYYEHWLHAFETLLLAKGVITVDELWGGAKPTLCKPGTPVLTQDMVSMVVSTGGSARVSHDVAPRFRVGDRVRTKNFNPTTHTRLPRYARDKVGRIEIAHGVFITPDTAAHGLGEHPQHVYSVSFTAQELWGEPRPDNVFIDLWDDYLEEA
modifications: Raoultella terrigena, strain 77.1
B2: NHase Seq ID No. 18 and 20: nitrile hydratase of Klebsiella oxytoca strain 38.1.2, α-subunit SEQ ID NO 18, β-subunit SEQ ID NO 20 (protein)
alpha: B1 alpha with E11Q, S80A, S152N, D177E, S189T
beta: MNGIHDLGGMHGLGPIPTEENEPYFHHEWERRVFPLFASLFVGGHFNVDEFRHAIERMAPTEYLQSSYYEHWLHAFETLLLAKGVITVEELWGGAKPAPCKPGTPVLTQEMVSMVVSTGGSARVSHDVAPRFRVGDWVRTKNFNPTTHTRLPRYARDKVGRIEIAHGVFITPDTAAHGLGEHPQHVYSVSFTAQALWGEPRPDKVFIDLWDDYLEEA
modifications: Klebsiella oxytoca, strain 38.1.2

Key:
[1] = Enantioselectivity of NHases towards rac-2-phenylpropionitrile (washed cells, chiral HPLC); type: biochemical; conditions: for E-value: kinetic resolution of rac-2-phenylpropionitrile; for enantiopreference: rac-2-phenylpropionitrile
Procedure: For the determination of enantioselectivity towards rac-mandelonitrile and 2-phenylpropionitrile 40-50 mg of washed cells were resuspended in 1 ml of 50 mM Tris/HCl pH 7.5. 100 μl of cell suspension were mixed with 800 μl 50 mM Tris/HCl pH 7.5 and incubated at 30° C. in a thermomixer at 1000 rpm. The biotransformation was started by addition of 100 μl of 10 mM rac-mandelonitrile or rac-2-phenylpropionitrile in 50 mM Tris/HCl pH 7.5. The reaction was stopped by addition of 100 μl 1M HCl after 1, 5 or 10 min. Cells were removed by centrifugation and the supernatant analysed by chiral HPLC for the presence of mandeloamide and phenylpropionamide, respectively. rac-Mandeloamide was analysed on a HPLC comprising a Surveyor 4 channel Pump, AutoSampler and UVNIS detector at 210 nm from Thermo Finnigan on a Nucleodex β-OH column (Macherey & Nagel) using 50% methanol/water:water (40:60) as mobile phase at a flow rate of 0.7 ml/min. The apparent enantiomeric ratio (Eapp) of the conversion of mandelonitrile was calculated according to Straathof and Jongejan for asymmetric catalysis (see example 9). In case of 2-phenylpropionamide, the samples were lyophilized and resuspended in n-hexane: 2-propanol (80:20). Prior to injection, the samples were additionally dried with sodium sulfate and were centrifugated at 16,000 g for 5 min. The supernatants were analyzed using a Chiracel OD column (Daicel) on a Spectra System (AS3000, P2000, UV2000 at 210 nm) from Thermo Separation Products with n-hexane: 2-propanol (80:20) as mobile phase at a flow rate of 0.5 ml/min. The enantiomeric ratio (E) of the conversion of PPN was calculated according to Chen et al.

[2] = Dependence of NHase activity on the pH; type: biochemical
Procedure: (§1) Cell free crude extracts from Raoultella terrigena (77.1) were incubated for 5 min at 30° C. and the indicated pH-values. The reaction was subsequently started by addition of substrate (1 mM PPN). The activity was determined as described in example 4. Buffers used: McIlvaine buffer: ˜0.1 M citrate/phosphate-buffer; Tris-buffer: 0.1 M Tris/HCl-buffer
as §1, with “E. coli BL21 (DE3) pET22-77.1a/pET26—77.1b” for “Raoultella terrigena (77.1)”
Cell free crude extracts from Klebsiella sp. (77.1) and E. coli BL21 (DE3) pET22—77.1a/pET26—77.1b were incubated for 5 min at 30° C. and the indicated pH-values. The reaction was subsequently started by addition of substrate (1 mM PPN). The activity was determined as described in example 4. Buffers used: McIlvaine buffer: ˜0.1 M citrate/phosphate-buffer
(§2) Lyophilized cells were incubated for 5 min at the indicated pH-values. The reaction was subsequently started by addition of substrate (1 mM PPN). The activity was determined as described in example 4. Buffers used: McIlvaine buffer: ˜0.1 M citrate/phosphate-buffer; Tris-buffer: 0.1 M Tris/HCl-buffer
as §2, with “Cell free crude extracts” for “Lyophilized cells”
If not otherwise indicated enzyme samples were prepared as follows: the cells from 1 ml of the culture were washed with 50 mM Tris/HCl pH 7.5 and resuspended in 750 μl of the same buffer. This suspension was incubated at 30° C. in a thermomixer at 1000 rpm. The biotransformation was started by addition of the substrate 2-phenylpropionitrile (PPN) in 50 mM Tris/HCl pH 7.5. The concentration of the substrate was 1 mM, if not otherwise stated. The reaction was stopped after 1 min, 5 min or 10 min as indicated by addition of 1 M HCl. Cells were removed by centrifugation and the supernatant analysed by HPLC for the presence of the corresponding amide. The HPLC analysis was carried out on a system comprising a Surveyor 4 channel Pump, AutoSampler and UVNIS detector at 210 nm from Thermo Finnigan on a Grom-Sil 1200DS-3 cp 3 μm (125×4.6 mm) reverse phase column. As mobile phase, acetonitrile and 0.3% H3PO4 were used in a ratio of 50:50 at a flow of 0.7 ml/min, respectively.
The pH-optimum for the enzyme according to Seq ID No. 2 and 4 (Raoultella terrigena, 77.1) has its pH-optimum at pH 6.75 (FIG. 27).
The NHase according to Seq ID. No. 18 and 20 (Klebsiella oxytoca, 38.1.2) was determined to be between pH 7.0-pH 7.5 (FIG. 28 and FIG. 29). […] At a pH 10, the residual activity of the enzyme is about 65-75%.

[3] = Determination of the isoelectric point (Phast-System); type: physicochemical; conditions: purified enzyme
Procedure: The IEP of the purified enzyme according to Seq. ID No. 2 and 4 was determined to be 3.5-3.6 using the Phast-System (Amersham Pharmacia).

| Molecule | E-value [1] | enantiopreference [1] | pH-optimum ([2]; 1 mM PPN) | residual activity at pH 4.0 ([2]; homologously produced enzyme) | residual activity at pH 10 [2] | activity at pH<6.0 ([2]; recombinantly produced enzyme) | IEP [3] | activity at pH-value<6 ([2]; crude cell extracts) | residual activity at pH 3.0 ([2]; lyophilized cells) |
| --- | --- | --- | --- | --- | --- | --- | --- | --- | --- |
| B1 | 47 | (S) | 6.75 | about 6% | about 27% | no activity | 3.5-3.6 | – | – |
| B2 | 35 | (S) | – | – | 65-75% | – | – | inactivated | about 10% |
